The target in the test is pIICASV-GP2(267–351) (not stated | CAS virus (CASV)). The test is described as follows: SEC.

“pIICASV-GP2(267–351) (domain or fragment)”: the stoichiometry N is 3.

For the origin of these results see paper PMC3951589.
